Patent publication US20160287687A1 (IMMATICS BIOTECHNOLOGIES, published 2016)

B1: ALIVSLPYL (SEQ ID NO: 1) (peptide)
peptide: ALIVSLPYL
notes: source gene SLC17A3; also called SLC17A3-001

target: T1, HLA-A*02:01 (human); test: UV-ligand exchange + anti-b2m ELISA; peptide exchange yield grade (+ >=10%, ++ >=20%, +++ >=50, ++++ >=75%)
T1 construct: MHC monomers first loaded with a UV-sensitive peptide (not identified) that is cleaved by UV light and exchanged for the test peptide; captured on streptavidin plates, detected with anti-β2m; also called peptide-receptive MHC molecules; MHC class I
From the text: Candidate peptides for T cell based therapies according to the present invention were further tested for their MHC binding capacity (affinity). The individual peptide-MHC complexes were produced by UV-ligand exchange, where a UV-sensitive peptide is cleaved upon UV-irradiation, and exchanged with the peptide of interest as analyzed. Only peptide candidates that can effectively bind and stabilize the peptide-receptive MHC molecules prevent dissociation of the MHC complexes. To determine the yield of the exchange reaction, an ELISA was performed based on the detection of the light chain (β2m) of stabilized MHC complexes. The assay was performed as generally described in Rodenko et al. (Rodenko et al., 2006).
96 well MAXISorp plates (NUNC) were coated over night with 2 ug/ml streptavidin in PBS at room temperature, washed 4× and blocked for 1h at 37° C. in 2% BSA containing blocking buffer. Refolded HLA-A*02:01/MLA-001 monomers served as standards, covering the range of 15-500 ng/ml. Peptide-MHC monomers of the UV-exchange reaction were diluted 100 fold in blocking buffer. Samples were incubated for 1 h at 37° C., washed four times, incubated with 2 ug/ml HRP conjugated anti-β2m for 1h at 37° C., washed again and detected with TMB solution that is stopped with […]. Absorption was measured at 450 nm. Candidate peptides that show a high exchange yield (preferably higher than 50%, most preferred higher than 75%) are generally preferred for a generation and production of antibodies or fragments thereof, and/or T cell receptors or fragments thereof, as they show sufficient avidity to the MHC molecules and prevent dissociation of the MHC complexes.

peptide exchange yield [%]	Binder
20 to 50	YLALILPVL (source gene SLC16A4) [YLALILPVL (SEQ ID NO: 55)]
50 to 75	YVLDLAAKV (source gene ACLY) [YVLDLAAKV (SEQ ID NO: 18)]
50 to 75	FLSQDIITV (source gene REN) [FLSQDIITV (SEQ ID NO: 4)]
50 to 75	VLLDTILQL (source gene HSF2BP) [VLLDTILQL (SEQ ID NO: 38)]
20 to 50	VILDTGTIQL (source gene NAT8) [VILDTGTIQL (SEQ ID NO: 42)]
20 to 50	FIADLVVGL (source genes ENO1, ENO2, ENO3) [FIADLVVGL (SEQ ID NO: 28)]
50 to 75	NLWPMILTL (source gene ITGA3) [NLWPMILTL (SEQ ID NO: 51)]
20 to 50	LLVPAHLVAA (source gene ESM1) [LLVPAHLVAA (SEQ ID NO: 25)]
20 to 50	FIQTEAPKEV (source gene RGS5) [FIQTEAPKEV (SEQ ID NO: 11)]
50 to 75	VLMDLKALL (source gene DDX41) [VLMDLKALL (SEQ ID NO: 106)]
20 to 50	SILDAVQRV (source gene PXDNL) [SILDAVQRV (SEQ ID NO: 52)]
50 to 75	ILMDFSNSM (source gene ITGB4) [ILMDFSNSM (SEQ ID NO: 56)]
20 to 50	RLIQGDQILSV (source gene INADL) [RLIQGDQILSV (SEQ ID NO: 21)]
50 to 75	ILAQQVHAL (source gene KIF12) [ILAQQVHAL (SEQ ID NO: 17)]
20 to 50	VLISVLQAI (source gene CYFIP2) [VLISVLQAI (SEQ ID NO: 108)]
20 to 50	VLHSLQTQL (source gene ANGPTL4) [VLHSLQTQL (SEQ ID NO: 35)]
50 to 75	B1
50 to 75	ALFEGVVRQI (source gene RRAD) [ALFEGVVRQI (SEQ ID NO: 104)]
50 to 75	TLAEVRAVQEI (source gene SMYD2) [TLAEVRAVQEI (SEQ ID NO: 47)]
20 to 50	FMPEELPQL (source gene THNSL2) [FMPEELPQL (SEQ ID NO: 16)]
50 to 75	ILWKDIEYV (source gene SYT9) [ILWKDIEYV (SEQ ID NO: 60)]
≥ 75	FLVDFEQSHL (source gene CYP2J2) [FLVDFEQSHL (SEQ ID NO: 58)]

peptide exchange yield [%]	Binder
50 to 75	ILWREVVTL (source gene HSF4) [ILWREVVTL (SEQ ID NO: 2)]
50 to 75	SLSDLLVSL (source gene OPN3) [SLSDLLVSL (SEQ ID NO: 27)]
20 to 50	SLSDHIVLL (source gene ITGA3) [SLSDHIVLL (SEQ ID NO: 50)]
50 to 75	VLIVEVPGV (source gene ADCY5) [VLIVEVPGV (SEQ ID NO: 49)]
50 to 75	SLKNNVVSV (source gene TGFBI) [SLKNNVVSV (SEQ ID NO: 59)]
20 to 50	YLYPNLTRL (source gene SLC6A13) [YLYPNLTRL (SEQ ID NO: 5)]
20 to 50	SLFGKKYIL (source gene FHL2) [SLFGKKYIL (SEQ ID NO: 36)]
50 to 75	KIMAQILTV (source gene LRRK2) [KIMAQILTV (SEQ ID NO: 13)]
20 to 50	TLLETEMLL (source gene CEP44) [TLLETEMLL (SEQ ID NO: 111)]
20 to 50	ALDPSGNQLI (source gene SEMA5B) [ALDPSGNQLI (SEQ ID NO: 12)]
50 to 75	LLFDHLEPIEL (source gene RASGRP3) [LLFDHLEPIEL (SEQ ID NO: 112)]
50 to 75	FLSPPLPSV (source genes BCKDHA, TMEM91) [FLSPPLPSV (SEQ ID NO: 22)]
50 to 75	ALADLDELLIRA (source gene HSPG2) [ALADLDELLIRA (SEQ ID NO: 105)]
50 to 75	YIQEVVQYI (source gene PLCB1) [YIQEVVQYI (SEQ ID NO: 23)]
50 to 75	ILLDLEQAL (source gene CUL7) [ILLDLEQAL (SEQ ID NO: 29)]
50 to 75	YLLNLNHLGL (source gene TRAM1) [YLLNLNHLGL (SEQ ID NO: 39)]
≥ 75	YLWSRVEKL (source gene LRRK2) [YLWSRVEKL (SEQ ID NO: 109)]
50 to 75	VLMDLKALLL (source gene DDX41) [VLMDLKALLL (SEQ ID NO: 107)]
20 to 50	ILIKHLVKV (source gene ARHGAP42) [ILIKHLVKV (SEQ ID NO: 15)]
50 to 75	GLSEVLVQI (source gene MICAL3) [GLSEVLVQI (SEQ ID NO: 46)]
20 to 50	LLDPGSLQL (source gene SYNDIG1L) [LLDPGSLQL (SEQ ID NO: 19)]
20 to 50	RLLGEVQAL (source gene HSF4) [RLLGEVQAL (SEQ ID NO: 3)]

peptide exchange yield [%]	Binder
20 to 50	FLLEIRQTL (source gene SNX13) [FLLEIRQTL (SEQ ID NO: 53)]
50 to 75	ALLGIPLTL (source genes KCNK3, KCNK15) [ALLGIPLTL (SEQ ID NO: 45)]
50 to 75	ELNNQNFYL (source gene CIT) [ELNNQNFYL (SEQ ID NO: 34)]
50 to 75	ALFSFVTAL (source gene TTYH3) [ALFSFVTAL (SEQ ID NO: 44)]
50 to 75	ALAVNISAA (source gene CCT6A) [ALAVNISAA (SEQ ID NO: 114)]
50 to 75	YIQEHLLQI (source gene IVNS1ABP) [YIQEHLLQI (SEQ ID NO: 40)]
50 to 75	VLFGLDPAVIKV (source gene HSPA12A) [VLFGLDPAVIKV (SEQ ID NO: 31)]
20 to 50	SLQKEILYL (source gene ATG2B) [SLQKEILYL (SEQ ID NO: 57)]
20 to 50	ALVAKGLVQA (source gene AKR1A1) [ALVAKGLVQA (SEQ ID NO: 54)]
20 to 50	LLDLHSYLL (source gene MARCH6) [LLDLHSYLL (SEQ ID NO: 110)]
20 to 50	GLLKTLQKL (source gene CLIC4) [GLLKTLQKL (SEQ ID NO: 41)]
20 to 50	VLAPVILML (source gene ABCC3) [VLAPVILML (SEQ ID NO: 37)]
50 to 75	SLFDWNVKL (source gene UBE2QL1) [SLFDWNVKL (SEQ ID NO: 113)]
20 to 50	AVANTTFTV (source gene HSD3B7) [AVANTTFTV (SEQ ID NO: 20)]
20 to 50	KLQDGLLHI (source gene TIMP1) [KLQDGLLHI (SEQ ID NO: 103)]
50 to 75	FTLGTTVFL (source gene NDUFC1) [FTLGTTVFL (SEQ ID NO: 24)]
20 to 50	FIADVVEKI (source genes HTRA1, HTRA3) [FIADVVEKI (SEQ ID NO: 33)]
20 to 50	ALLTETIFL (source gene LRRK2) [ALLTETIFL (SEQ ID NO: 14)]
50 to 75	YLKDELDEL (source gene SOGA2) [YLKDELDEL (SEQ ID NO: 43)]
20 to 50	QLFYTKIFL (source gene PLOD1) [QLFYTKIFL (SEQ ID NO: 30)]
20 to 50	VVASNIMEV (source gene PFKFB3) [VVASNIMEV (SEQ ID NO: 48)]
20 to 50	KLLQNNYGL (source gene RGS5) [KLLQNNYGL (SEQ ID NO: 10)]
